Reference: the supplement of paper PMC9112550, “Optimization of the antimicrobial peptide Bac7 by deep mutational scanning” (BMC Biology, 2022)

tested on: Escherichia coli TOP10; experiment: shrunken log2 fold change of peptide-encoding DNA abundance (4.5 h post-induction vs induction); higher = less antimicrobial activity (less host growth inhibition); settings: time post-induction: 4.5 h; library: site-saturation at positions 5, 18, 19, 20
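Further: peptides expressed intracellularly from a pBAD plasmid library in pooled LB shake-flask culture, induced with 0.3% L-arabinose, DNA abundance read by NGS, three biological replicates, DESeq2 with apeglm shrinkage.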

| Sequence | shrunken log2 fold change |
| --- | --- |
| RRIRWRPPRLPRPRPRPELRPRP | 0.0333 |
| RRIRFRPPRLPRPRPRPMFSPRP | -0.0614 |
| RRIRTRPPRLPRPRPRPFLTPRP | 0.153 |
| RRIRLRPPRLPRPRPRPGFGPRP | 0.189 |
| RRIRNRPPRLPRPRPRPWNWPRP | -0.0655 |
| RRIRLRPPRLPRPRPRPIWVPRP | -0.0362 |
| RRIRRRPPRLPRPRPRPEWRPRP | 0.639 |
| RRIRRRPPRLPRPRPRPSQDPRP | 0.112 |
| RRIRDRPPRLPRPRPRPEHKPRP | 0.0114 |
| RRIRLRPPRLPRPRPRPYLTPRP | -0.663 |
| RRIRTRPPRLPRPRPRPETTPRP | 0.285 |
| RRIRIRPPRLPRPRPRPQRWPRP | 0.304 |
| RRIRTRPPRLPRPRPRPFCIPRP | -0.361 |
| RRIRVRPPRLPRPRPRPHQMPRP | -0.0715 |
| RRIRMRPPRLPRPRPRPLLVPRP | 0.199 |
| RRIRARPPRLPRPRPRPQKRPRP | 0.172 |
| RRIRNRPPRLPRPRPRPMCDPRP | -0.386 |
| RRIRIRPPRLPRPRPRPCGSPRP | -0.0454 |
| RRIRTRPPRLPRPRPRPSPRPRP | 0.396 |
| RRIRYRPPRLPRPRPRPKNVPRP | 0.0242 |
| RRIRPRPPRLPRPRPRPYLGPRP | 3.16 |
| RRIRPRPPRLPRPRPRPNVFPRP | -0.21 |
| RRIRARPPRLPRPRPRPYGWPRP | 0.0617 |
| RRIRFRPPRLPRPRPRPAPGPRP | 0.668 |
| RRIRRRPPRLPRPRPRPSYYPRP | -0.0156 |

| Sequence | shrunken log2 fold change |
| --- | --- |
| RRIRHRPPRLPRPRPRPGDQPRP | -0.0414 |
| RRIRIRPPRLPRPRPRPYVVPRP | -1.54 |
| RRIRKRPPRLPRPRPRPMPKPRP | 0.421 |
| RRIRTRPPRLPRPRPRPFGCPRP | -0.0582 |
| RRIRLRPPRLPRPRPRPTFAPRP | 0.394 |
| RRIRLRPPRLPRPRPRPIWRPRP | 0.102 |
| RRIRNRPPRLPRPRPRPDYFPRP | -0.209 |
| RRIRKRPPRLPRPRPRPEHMPRP | 0.829 |
| RRIRNRPPRLPRPRPRPQKEPRP | -0.0193 |
| RRIRNRPPRLPRPRPRPRKMPRP | 0.263 |
| RRIRGRPPRLPRPRPRPNVMPRP | 0.114 |
| RRIRYRPPRLPRPRPRPVGIPRP | 0.177 |
| RRIRFRPPRLPRPRPRPPKLPRP | 0.0996 |
| RRIRRRPPRLPRPRPRPFALPRP | -0.00461 |
| RRIRKRPPRLPRPRPRPFHIPRP | -0.025 |
| RRIRFRPPRLPRPRPRPQATPRP | -0.248 |
| RRIRIRPPRLPRPRPRPQQIPRP | -0.552 |
| RRIRRRPPRLPRPRPRPMAHPRP | 0.0412 |
| RRIRARPPRLPRPRPRPFWYPRP | -0.181 |
| RRIRSRPPRLPRPRPRPNDIPRP | -0.333 |
| RRIRMRPPRLPRPRPRPLWTPRP | 0.261 |
| RRIRVRPPRLPRPRPRPKHKPRP | -0.114 |
| RRIRCRPPRLPRPRPRPHDKPRP | -0.363 |
| RRIRLRPPRLPRPRPRPGCTPRP | -0.151 |
| RRIRRRPPRLPRPRPRPSCAPRP | 0.452 |

| Sequence | shrunken log2 fold change |
| --- | --- |
| RRIRNRPPRLPRPRPRPCTQPRP | -0.147 |
| RRIRHRPPRLPRPRPRPKPNPRP | 0.225 |
| RRIRARPPRLPRPRPRPHGFPRP | -0.00228 |
| RRIRKRPPRLPRPRPRPWHCPRP | 0.0258 |
| RRIRHRPPRLPRPRPRPIFHPRP | -0.155 |
| RRIRIRPPRLPRPRPRPSKQPRP | -0.18 |
| RRIRVRPPRLPRPRPRPWNQPRP | 0.0232 |
| RRIRHRPPRLPRPRPRPCQFPRP | -0.0209 |
| RRIRWRPPRLPRPRPRPNERPRP | 0.119 |
| RRIRCRPPRLPRPRPRPHATPRP | 0.204 |
| RRIRLRPPRLPRPRPRPCCYPRP | -0.611 |
| RRIRFRPPRLPRPRPRPYDGPRP | -0.18 |
| RRIRTRPPRLPRPRPRPCAGPRP | -0.0463 |
| RRIRWRPPRLPRPRPRPAHVPRP | -0.0191 |
| RRIRRRPPRLPRPRPRPHCMPRP | -0.329 |
| RRIRARPPRLPRPRPRPDCMPRP | 0.386 |
| RRIRQRPPRLPRPRPRPIWYPRP | 0.0288 |
| RRIRIRPPRLPRPRPRPHYHPRP | -1.47 |
| RRIRARPPRLPRPRPRPTKEPRP | 0.0091 |
| RRIRQRPPRLPRPRPRPACLPRP | 0.14 |
| RRIRPRPPRLPRPRPRPETRPRP | 0.187 |
| RRIRCRPPRLPRPRPRPWGVPRP | 0.122 |
| RRIRDRPPRLPRPRPRPAGPPRP | 0.271 |
| RRIRCRPPRLPRPRPRPLICPRP | -0.499 |
| RRIRDRPPRLPRPRPRPECIPRP | 0.0163 |

| Sequence | shrunken log2 fold change |
| --- | --- |
| RRIRMRPPRLPRPRPRPQNWPRP | 0.532 |
| RRIRDRPPRLPRPRPRPFRHPRP | -0.125 |
| RRIRVRPPRLPRPRPRPKVHPRP | -0.192 |
| RRIRYRPPRLPRPRPRPHVYPRP | -0.748 |
| RRIRKRPPRLPRPRPRPFLIPRP | -0.19 |
| RRIRHRPPRLPRPRPRPLCCPRP | -0.0675 |
| RRIRFRPPRLPRPRPRPLLFPRP | -0.315 |
| RRIRCRPPRLPRPRPRPLQHPRP | -0.0615 |
| RRIRKRPPRLPRPRPRPTNKPRP | 0.14 |
| RRIRWRPPRLPRPRPRPHRYPRP | -0.15 |
| RRIRLRPPRLPRPRPRPQYSPRP | -0.1 |
| RRIRHRPPRLPRPRPRPSWLPRP | -0.0847 |
| RRIRVRPPRLPRPRPRPQPVPRP | -0.195 |
| RRIRSRPPRLPRPRPRPGGFPRP | 0.245 |
| RRIRCRPPRLPRPRPRPEGFPRP | 0.0977 |
| RRIRDRPPRLPRPRPRPEQTPRP | 0.0162 |
| RRIRLRPPRLPRPRPRPFRMPRP | -0.0132 |
| RRIRIRPPRLPRPRPRPIHFPRP | -0.0704 |
| RRIRFRPPRLPRPRPRPNMYPRP | -0.712 |
| RRIRKRPPRLPRPRPRPWPRPRP | 0.264 |
| RRIRMRPPRLPRPRPRPWGGPRP | 0.414 |
| RRIRARPPRLPRPRPRPRFAPRP | 0.513 |
| RRIRLRPPRLPRPRPRPMMMPRP | -0.114 |
| RRIRCRPPRLPRPRPRPPEWPRP | 0.575 |
| RRIRSRPPRLPRPRPRPICCPRP | -0.0929 |

| Sequence | shrunken log2 fold change |
| --- | --- |
| RRIRKRPPRLPRPRPRPTKTPRP | 0.14 |
| RRIRTRPPRLPRPRPRPIMQPRP | -0.201 |
| RRIRIRPPRLPRPRPRPMTSPRP | -0.0513 |
| RRIRWRPPRLPRPRPRPMLYPRP | 0.0136 |
| RRIRMRPPRLPRPRPRPFFGPRP | -0.0869 |
| RRIRIRPPRLPRPRPRPSAYPRP | -0.138 |
| RRIRCRPPRLPRPRPRPVFNPRP | -0.204 |
| RRIRLRPPRLPRPRPRPQRPPRP | 0.265 |
| RRIRMRPPRLPRPRPRPFRHPRP | 0.0701 |
| RRIRCRPPRLPRPRPRPICPPRP | -0.148 |
| RRIRGRPPRLPRPRPRPAAIPRP | 0.953 |
| RRIRNRPPRLPRPRPRPVMRPRP | 0.526 |
| RRIRERPPRLPRPRPRPENFPRP | -0.195 |
| RRIRKRPPRLPRPRPRPRWFPRP | 0.295 |
| RRIRMRPPRLPRPRPRPGIIPRP | -0.0597 |
| RRIRWRPPRLPRPRPRPIHEPRP | 0.041 |
| RRIRDRPPRLPRPRPRPQKRPRP | -0.00561 |
| RRIRGRPPRLPRPRPRPSQWPRP | 0.101 |
| RRIRNRPPRLPRPRPRPHQQPRP | 0.317 |
| RRIRSRPPRLPRPRPRPMGDPRP | 0.00987 |
| RRIRCRPPRLPRPRPRPSRCPRP | 0.137 |
| RRIRGRPPRLPRPRPRPFPIPRP | 0.21 |
| RRIRNRPPRLPRPRPRPQGFPRP | -0.00956 |
| RRIRYRPPRLPRPRPRPAGEPRP | -0.148 |
| RRIRGRPPRLPRPRPRPVRRPRP | 0.977 |

| Sequence | shrunken log2 fold change |
| --- | --- |
| RRIRLRPPRLPRPRPRPAIKPRP | -0.139 |
| RRIRVRPPRLPRPRPRPMRDPRP | 0.0208 |
| RRIRWRPPRLPRPRPRPDYCPRP | -0.0321 |
| RRIRNRPPRLPRPRPRPSNYPRP | -0.791 |
| RRIRNRPPRLPRPRPRPCACPRP | -0.0293 |
| RRIRARPPRLPRPRPRPRCGPRP | 0.609 |
| RRIRMRPPRLPRPRPRPVRLPRP | 0.116 |
| RRIRMRPPRLPRPRPRPRLMPRP | -0.0423 |
| RRIRIRPPRLPRPRPRPVKDPRP | -0.00153 |
| RRIRIRPPRLPRPRPRPYQEPRP | 0.0173 |
| RRIRFRPPRLPRPRPRPNMMPRP | -0.444 |
| RRIRKRPPRLPRPRPRPMRKPRP | 1.44 |
| RRIRTRPPRLPRPRPRPMQHPRP | -0.112 |
| RRIRPRPPRLPRPRPRPEENPRP | 0.163 |
| RRIRYRPPRLPRPRPRPFQHPRP | -0.281 |
| RRIRCRPPRLPRPRPRPHQFPRP | 0.0354 |
| RRIRARPPRLPRPRPRPWKLPRP | -0.36 |
| RRIRARPPRLPRPRPRPRCKPRP | 0.51 |
| RRIRTRPPRLPRPRPRPMTCPRP | -0.0817 |
| RRIRDRPPRLPRPRPRPGYMPRP | -0.649 |
| RRIRMRPPRLPRPRPRPQYFPRP | 0.00454 |
| RRIRGRPPRLPRPRPRPTKGPRP | 0.2 |
| RRIRPRPPRLPRPRPRPGDMPRP | 0.00271 |
| RRIRKRPPRLPRPRPRPCSTPRP | 0.0274 |
| RRIRMRPPRLPRPRPRPTLQPRP | 0.13 |
